The text below walks through data of doi:10.1101/2020.01.06.896597 (bioRxiv, 2020).

The data set “cryo-EM structure” deals with the molecule itself. The experiment in a line: cryo-EM structure.
Data set [1] concerns the molecule itself. Kind of data set: cryo-EM 2D class averages.

B1: full-length (FL) human ACAT1 (enzyme, UniProt P35610 1-550, looked up)
chain: MVGEEKMSLRNRLSKSRENPEEDEDQRNPAKESLETPSNGRIDIKQLIAKKIKLTAEAEELKPFFMKEVGSHFDDFVTNLIEKSASLDNGGCALTTFSVLEGEKNNHRAKDLRAPPEQGKIFIARRSLLDELLEVDHIRTIYHMFIALLILFILSTLVVDYIDEGRLVLEFSLLSYAFGKFPTVVWTWWIMFLSTFSVPYFLFQHWATGYSKSSHPLIRSLFHGFLFMIFQIGVLGFGPTYVVLAYTLPPASRFIIIFEQIRFVMKAHSFVRENVPRVLNSAKEKSSTVPIPTVNQYLYFLFAPTLIYRDSYPRNPTVRWGYVAMKFAQVFGCFFYVYYIFERLCAPLFRNIKQEPFSARVLVLCVFNSILPGVLILFLTFFAFLHCWLNAFAEMLRFGDRMFYKDWWNSTSYSNYYRTWNVVVHDWLYYYAYKDFLWFFSKRFKSAAMLAVFAVSAVVHEYALAVCLSFFYPVLFVLFMFFGMAFNFIVNDSRKKPIWNVLMWTSLFLGNGVLLCFYSQEWYARQHCPLKNPTFLDYVRPRSWTCRYVF
As a reminder, the stoichiometry N is the number of molecules, sites or subunits per partner or assembly. In the case of B1, the “stoichiometry N” value in “cryo-EM structure” amounted to 4.

B2: ACAT1-ΔNTD (domain or fragment, human, UniProt P35610 111-550, looked up)
chain: DLRAPPEQGKIFIARRSLLDELLEVDHIRTIYHMFIALLILFILSTLVVDYIDEGRLVLEFSLLSYAFGKFPTVVWTWWIMFLSTFSVPYFLFQHWATGYSKSSHPLIRSLFHGFLFMIFQIGVLGFGPTYVVLAYTLPPASRFIIIFEQIRFVMKAHSFVRENVPRVLNSAKEKSSTVPIPTVNQYLYFLFAPTLIYRDSYPRNPTVRWGYVAMKFAQVFGCFFYVYYIFERLCAPLFRNIKQEPFSARVLVLCVFNSILPGVLILFLTFFAFLHCWLNAFAEMLRFGDRMFYKDWWNSTSYSNYYRTWNVVVHDWLYYYAYKDFLWFFSKRFKSAAMLAVFAVSAVVHEYALAVCLSFFYPVLFVLFMFFGMAFNFIVNDSRKKPIWNVLMWTSLFLGNGVLLCFYSQEWYARQHCPLKNPTFLDYVRPRSWTCRYVF
For B2, in data set [1], the “stoichiometry N” value came out at 2.
